Measurements from the supplement of paper PMC9112550, “Optimization of the antimicrobial peptide Bac7 by deep mutational scanning” (BMC Biology, 2022).

test system: Escherichia coli TOP10; experiment: shrunken log2 fold change of peptide-encoding DNA abundance (4.5 h post-induction vs induction); higher = less antimicrobial activity (less host growth inhibition); details: time post-induction: 4.5 h; library: site-saturation at positions 5, 18, 19, 20
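Note: peptides expressed intracellularly from a pBAD plasmid library in pooled LB shake-flask culture, induced with 0.3% L-arabinose, DNA abundance read by NGS, three biological replicates, DESeq2 with apeglm shrinkage.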

| Sequence | shrunken log2 fold change |
| --- | --- |
| RRIRIRPPRLPRPRPRPYFGPRP | -0.0455 |
| RRIRQRPPRLPRPRPRPTPAPRP | 0.953 |
| RRIRMRPPRLPRPRPRPSPYPRP | -0.0611 |
| RRIRVRPPRLPRPRPRPYQNPRP | -0.141 |
| RRIRSRPPRLPRPRPRPKRFPRP | 0.0952 |
| RRIRGRPPRLPRPRPRPDFQPRP | 1.01 |
| RRIRPRPPRLPRPRPRPDCKPRP | -0.133 |
| RRIRKRPPRLPRPRPRPTAFPRP | 0.355 |
| RRIRTRPPRLPRPRPRPTIMPRP | -0.597 |
| RRIRYRPPRLPRPRPRPKKMPRP | -0.374 |
| RRIRKRPPRLPRPRPRPNPEPRP | 0.0292 |
| RRIRERPPRLPRPRPRPQLRPRP | -0.00323 |
| RRIRRRPPRLPRPRPRPTMLPRP | 0.0234 |
| RRIRMRPPRLPRPRPRPQQPPRP | 0.0363 |
| RRIRSRPPRLPRPRPRPNMLPRP | -0.323 |
| RRIRWRPPRLPRPRPRPLKVPRP | -0.496 |
| RRIRHRPPRLPRPRPRPFLNPRP | -0.169 |
| RRIRYRPPRLPRPRPRPYKYPRP | -0.238 |
| RRIRCRPPRLPRPRPRPYSYPRP | -0.0951 |
| RRIRHRPPRLPRPRPRPHECPRP | -0.0277 |
| RRIRKRPPRLPRPRPRPLMTPRP | 0.175 |
| RRIRFRPPRLPRPRPRPPRLPRP | 0.399 |

| Sequence | shrunken log2 fold change |
| --- | --- |
| RRIRGRPPRLPRPRPRPILLPRP | -0.0679 |
| RRIRCRPPRLPRPRPRPAWEPRP | 0.0219 |
| RRIRHRPPRLPRPRPRPQPIPRP | -0.13 |
| RRIRNRPPRLPRPRPRPFQSPRP | -0.0983 |
| RRIRDRPPRLPRPRPRPLFQPRP | 0.192 |
| RRIRCRPPRLPRPRPRPCKLPRP | -0.896 |
| RRIRMRPPRLPRPRPRPRCPPRP | 0.757 |
| RRIRMRPPRLPRPRPRPECRPRP | 2.38 |
| RRIRHRPPRLPRPRPRPGRKPRP | 0.00144 |
| RRIRRRPPRLPRPRPRPSHCPRP | -0.041 |
| RRIRERPPRLPRPRPRPNLSPRP | -0.15 |
| RRIRWRPPRLPRPRPRPYAWPRP | 0.122 |
| RRIRRRPPRLPRPRPRPDTRPRP | -0.0459 |
| RRIRYRPPRLPRPRPRPWNAPRP | -0.397 |
| RRIRYRPPRLPRPRPRPDYVPRP | -0.447 |
| RRIRCRPPRLPRPRPRPGKGPRP | -0.025 |
| RRIRLRPPRLPRPRPRPRTDPRP | -0.0417 |
| RRIRERPPRLPRPRPRPENPPRP | 0.142 |
| RRIRNRPPRLPRPRPRPNADPRP | -0.194 |
| RRIRFRPPRLPRPRPRPRYVPRP | -0.105 |
| RRIRSRPPRLPRPRPRPYGGPRP | -0.608 |
| RRIRFRPPRLPRPRPRPENMPRP | -0.158 |

| Sequence | shrunken log2 fold change |
| --- | --- |
| RRIRRRPPRLPRPRPRPLHCPRP | 0.0886 |
| RRIRTRPPRLPRPRPRPRPEPRP | 0.238 |
| RRIRGRPPRLPRPRPRPFFCPRP | 0.471 |
| RRIRVRPPRLPRPRPRPIYFPRP | -0.23 |
| RRIRHRPPRLPRPRPRPCHEPRP | -0.0201 |
| RRIRRRPPRLPRPRPRPEIMPRP | 0.209 |
| RRIRYRPPRLPRPRPRPVDQPRP | -0.611 |
| RRIRERPPRLPRPRPRPCPKPRP | -0.39 |
| RRIRIRPPRLPRPRPRPCHKPRP | -0.16 |
| RRIRTRPPRLPRPRPRPLEVPRP | -0.00296 |
| RRIRVRPPRLPRPRPRPLLMPRP | -0.325 |
| RRIRIRPPRLPRPRPRPYLRPRP | -0.086 |
| RRIRERPPRLPRPRPRPMQVPRP | -0.32 |
| RRIRHRPPRLPRPRPRPSWNPRP | -0.264 |
| RRIRGRPPRLPRPRPRPPPIPRP | 1.16 |
| RRIRQRPPRLPRPRPRPPQHPRP | 0.718 |
| RRIRDRPPRLPRPRPRPLEMPRP | 0.0813 |
| RRIRNRPPRLPRPRPRPCTSPRP | -0.0712 |
| RRIRTRPPRLPRPRPRPAIPPRP | -0.212 |
| RRIRTRPPRLPRPRPRPMGAPRP | -0.0569 |
| RRIRHRPPRLPRPRPRPILAPRP | 0.00463 |
| RRIRSRPPRLPRPRPRPGTRPRP | -0.0748 |

| Sequence | shrunken log2 fold change |
| --- | --- |
| RRIRGRPPRLPRPRPRPAPNPRP | 0.829 |
| RRIRHRPPRLPRPRPRPWIDPRP | -0.00448 |
| RRIRYRPPRLPRPRPRPIYIPRP | -0.673 |
| RRIRRRPPRLPRPRPRPMLEPRP | 0.0718 |
| RRIRDRPPRLPRPRPRPMQRPRP | -0.00663 |
| RRIRYRPPRLPRPRPRPLIFPRP | -1.08 |
| RRIRNRPPRLPRPRPRPPPRPRP | 1.47 |
| RRIRFRPPRLPRPRPRPYCEPRP | -0.0267 |
| RRIRVRPPRLPRPRPRPQASPRP | 0.322 |
| RRIRIRPPRLPRPRPRPYNCPRP | -0.411 |
| RRIRFRPPRLPRPRPRPTYCPRP | -0.339 |
| RRIRDRPPRLPRPRPRPSMRPRP | 0.334 |
| RRIRTRPPRLPRPRPRPKMYPRP | -0.52 |
| RRIRIRPPRLPRPRPRPNDNPRP | -0.912 |
| RRIRKRPPRLPRPRPRPSIKPRP | -0.004 |
| RRIRMRPPRLPRPRPRPKDAPRP | 2.02 |
| RRIRGRPPRLPRPRPRPQQVPRP | 0.564 |
| RRIRDRPPRLPRPRPRPNNHPRP | -0.543 |
| RRIRPRPPRLPRPRPRPHQNPRP | -0.124 |
| RRIRYRPPRLPRPRPRPKQKPRP | -0.0531 |
| RRIRARPPRLPRPRPRPWVWPRP | 0.596 |
| RRIRFRPPRLPRPRPRPTACPRP | -0.118 |

| Sequence | shrunken log2 fold change |
| --- | --- |
| RRIRLRPPRLPRPRPRPKPLPRP | 0.144 |
| RRIRERPPRLPRPRPRPIHQPRP | -1.22 |
| RRIRSRPPRLPRPRPRPSFVPRP | -0.705 |
| RRIRMRPPRLPRPRPRPFVIPRP | -0.197 |
| RRIRMRPPRLPRPRPRPNGNPRP | 0.261 |
| RRIRTRPPRLPRPRPRPYPMPRP | -1.43 |
| RRIRQRPPRLPRPRPRPRPGPRP | 0.286 |
| RRIRYRPPRLPRPRPRPERMPRP | -0.459 |
| RRIRLRPPRLPRPRPRPVEFPRP | 0.0713 |
| RRIRSRPPRLPRPRPRPCVDPRP | 0.00587 |
| RRIRNRPPRLPRPRPRPAESPRP | 0.37 |
| RRIRCRPPRLPRPRPRPNWIPRP | -0.419 |
| RRIRQRPPRLPRPRPRPLQSPRP | -0.0698 |
| RRIRERPPRLPRPRPRPEREPRP | 0.414 |
| RRIRTRPPRLPRPRPRPPFCPRP | 0.188 |
| RRIRVRPPRLPRPRPRPTNAPRP | -0.211 |
| RRIRFRPPRLPRPRPRPCSAPRP | -0.103 |
| RRIRKRPPRLPRPRPRPYVGPRP | -0.0717 |
| RRIRSRPPRLPRPRPRPPIHPRP | -0.329 |
| RRIRARPPRLPRPRPRPMPRPRP | 0.827 |
| RRIRKRPPRLPRPRPRPKKRPRP | 1.09 |
